Laboratory results taken from paper doi:10.1101/2023.06.19.545293.

Biological target: ZnF domain of A. thaliana SPL5 (Ser60-Leu127) (A. thaliana) (UniProt Q9S758)
Assay: ITC

ZnF domain of A. thaliana SPL5 (Ser60-Leu127) (A. thaliana), sequence (Q9S758 60-127): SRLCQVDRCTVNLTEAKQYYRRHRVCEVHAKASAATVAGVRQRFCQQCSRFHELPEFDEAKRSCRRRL

With “SAP05 (mature, Ala33-Lys135) of Aster Yellows phytoplasma strain Witches Broom (natural protein)” the Kd was 450 nM and the stoichiometry N was 1.
